First the molecules themselves.
T1: huCLL1-K244-Avi-Tev-His (human, UniProt Q5QGZ9 65-265)
T1 construct: extracellular domain
T1 sequence (looked up): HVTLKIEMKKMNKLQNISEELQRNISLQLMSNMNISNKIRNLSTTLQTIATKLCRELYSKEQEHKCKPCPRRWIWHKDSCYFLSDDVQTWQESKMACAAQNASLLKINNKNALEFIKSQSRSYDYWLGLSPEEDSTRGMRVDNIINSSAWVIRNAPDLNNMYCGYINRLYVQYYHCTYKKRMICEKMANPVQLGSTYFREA

T2: huCLL1-Q244-Avi-Tev-His (human, UniProt Q5QGZ9 65-265)
T2 construct: extracellular domain; also called CLL-1 K244Q
T2 sequence (looked up): T1 sequence (looked up) with K180Q

B1: Polypeptide No. 190 (scFv, V domains shown)
VH: EVQLLESGGGLVQPGGSLRLSCAASGFTFSSSWMHWVRQAPGKGLEWVSTINTNGDAAYYADSVKGRFTISRDNSKNTLYLQMNSLRAEDTAVYYCARDTVLDDYGDYDDYGMDVWGQGTTVTVSS
VL: EIVMTQSPATLSVSPGERATLSCRASQSVSSSYLAWYQQKPGQAPRLLIYGASTRAAGIPARFSGSGSGTEFTLTISSLQSEDFAVYYCQQYGSSPFTFGPGTKVDIKR
notes: scFv
B2: Polypeptide No. 199 (scFv, V domains shown)
VH: QVQLVQSGAEVKKPGASVKVSCKASGDTFTGYHIHWVRQAPGQGLEWMGWMNPDSGSTGYAQKFQGRVTMTRDTSTSTVYMELSSLRSEDTAVYYCTTDRLYGDYFDYWGQGTLVTVSS
VL: DIQMTQSPSSLSASVGDRVTITCRASQSVSSWLAWYQQKPGKAPKLLIYDASSLQSGVPSRFSGSGSGTDFTLTISSLQPEDFATYYCQQANSFPFTFGPGTKVDIKR
notes: scFv
B3: Polypeptide No. 200 (scFv, V domains shown)
VH: QVQLVQSGAEVKKPGASVKVSCKASGYTFTDYYMHWVRQAPGQGLEWMGWMNPNSGNTGYAQKFQGRVTMTRDTSTSTVYMELSSLRSEDTAVYYCAADDTKSPYGMDVWGQGTMVTVSS
VL: DIQMTQSPSSLSASVGDRVTITCQASQDISNYLNWYQQKPGKAPKLLIYEASSLQSGVPSRFSGSGSGTDFTLTISSLQPEDFATYYCQQTYSPPPTFGQGTKLEIKR
notes: scFv
B4: Polypeptide No. 181 (scFv, V domains shown)
VH: QVQLVQSGAEVKKPGASVKVSCKASGYTFTGYYMHWVRQAPGQGLEWMGVINPSGGSTSYAQKFQGRVTMTRDTSTSTVYMELSSLRSEDTAVYYCARGRTDDAFDIWGQGTLVTVSS
VL: DIQMTQSPSSLSASVGDRVTITCRASQTISSWLAWYQQKPGKAPKLLIYAASTLQSGVPSRFSGSGSGTDFTLTISSLQPEDFATYYCQQSYSIPLTFGGGTKLEIKR
notes: scFv
B5: Polypeptide No. 194 (scFv, V domains shown)
VH: QVQLVQSGAEVKKPGASVKVSCKASGVTFSNSGINWVRQAPGQGLEWMGWMNPASGDTGYAQKFQGRVTMTRDTSTSTVYMELSSLRSEDTAVYYCARGEYGAEYFQHWGQGTLVTVSS
VL: B4 VL with T28S, A50D, T53S, Q55E, Y92H, I94L, L96P, G100Q, K103R
notes: scFv
B6: Polypeptide No. 183 (scFv, V domains shown)
VH: QVQLVQSGAEVKKPGSSVKVSCKASGGTFSSYAISWVRQAPGQGLEWMGGIIPKFGPPNYAPKFQGRVTITADESTSTAYMELSSLRSEDTAVYYCARNSYGDDFDYWGQGTLVTVSS
VL: B4 VL with T28S, T53S, S56R, I94T, G100Q, L104V
notes: scFv
B7: Polypeptide No. 182 (scFv, V domains shown)
VH: QVQLVQSGAEVKKPGASVKVSCKASGYTFTDYYMHWVRQAPGQGLEWLGIINTGAGTTNYAPKFQGRVTMTRDTSTSTVYMELSSLRSEDTAVYYCARGLTSDHFDYWGQGTLVTVSS
VL: B4 VL with T28N, S30G, S31P, A50E, S52F, Y92D, S93N, L96I, G100Q, L104V
notes: scFv
B8: Polypeptide No. 197 (scFv, V domains shown)
VH: QVQLVQSGAEVKKPGASVKVSCKASGYTLTNNWMHWVRQAPGQGLEWMGWMNPNSGNTGYAQKFQGRVTMTRDTSTSTVYMELSSLRSEDTAVYYCATATADDAFDIWGQGTMVTVSS
VL: B2 VL with V29I, S31T, D50G, A91S, N92Y, S93D, F94I, F96I
notes: scFv
B9: Polypeptide No. 189 (scFv, V domains shown)
VH: EVQLLESGGGLVQPGGSLRLSCAASGLTAGSNYMSWVRQAPGKGLEWVSAISDDGHWTDYADSVKGRFTISRDNSKNTLYLQMNSLRAEDTAVYYCVKDDGEGSGIDWGQGTLVTVSS
VL: B2 VL with S28G, V29I, S31D, W32Y, D50G, A91S, N92Y, F94T, F96W
notes: scFv
B10: Polypeptide No. 178 (scFv, V domains shown)
VH: EVQLLESGGGLVQPGGSLRLSCAASGFTFSSSDMSWVRQAPGKGLEWVSSITGSGDGTYYADSVKGRFTISRDNSKNTLYLQMNSLRAEDTAVYYCIRDWEGIYQWGQGTLVTVSS
VL: DIQMTQSPSSLSASVGDRVTITCRVSQGISSYLNWYQQKPGKAPKLLIYDASNLETGVPSRFSGSGSGTDFTLTISSLQPEDFATYYCQQGYSTPWTFGQGTKLEIKR
notes: scFv
B11: Polypeptide No. 198 (scFv, V domains shown)
VH: EVQLLESGGGLVQPGGSLRLSCAASGFTFSTFWMSWVRQAPGKGLEWVATISYDGSNQYYADSVKGRFTISRDNSKNTLYLQMNSLRAEDTAVYYCARLELHEGRFDYWGQGTLVTVSS
VL: B2 VL with V29I, W32Y, A34N, S53N, Q55E, S56T
notes: scFv
B12: Polypeptide No. 184 (scFv, V domains shown)
VH: QVQLVQSGAEVKKPGASVKVSCKASGGTFGNYGINWVRQAPGQGLEWMGVINPSSGGTNLAQKFQGRVTMTRDTSTSTVYMELSSLRSEDTAVYYCARSLGWPSPYMDVWGQGTMVTVSS
VL: B10 VL with V25A, G28S, S31R, G91S
notes: scFv
B13: Polypeptide No. 195 (scFv, V domains shown)
VH: QVQLVQSGAEVKKPGASVKVSCKASGYTFTNSYIHWVRQAPGQGLEWMGIINPSGDSTTYAQKFQGRVTMTRDTSTSTVYMELSSLRSEDTAVYYCAKPTTGDGMDVWGQGTTVTVSS
VL: B4 VL with T28G, S31N, A50D, T53N, Q55E, S56T, I94T, L104V
notes: scFv
B14: Polypeptide No. 196 (scFv, V domains shown)
VH: QVQLVQSGAEVKKPGASVKVSCKASGYTLTNYYMHWVRQAPGQGLEWMGWISPTDGKTKYAQKFQGRVTMTRDTSTSTVYMELSSLRSEDTAVYYCTTDLLGDWFDPWGQGTLVTVSS
VL: B10 VL with V25A, Q27R, G28S, S30R, G91S, S93N, L104V
notes: scFv
B15: Polypeptide No. 179 (scFv, V domains shown)
VH: QVQLVQSGAEVKKPGASVKVSCKASGGTFSSYAISWVRQAPGQGLEWMGTINPSGGSTNYAQKFQGRVTMTRDTSTSTVYMELSSLRSEDTAVYYCAIGGYDSPYMDVWGKGTTVTVSS
VL: B10 VL with R24Q, V25A, G28D, S31N, T94P, Q100G, L104V
notes: scFv
B16: Polypeptide No. 188 (scFv, V domains shown)
VH: EVQLLESGGGLVQPGGSLRLSCAASGFTFSSYGMHWVRQAPGKGLEWVSYTSSSSSTIYYADSVKGRFTISRDNSKNTLYLQMNSLRAEDTAVYYCARGNVGDNWNDDEAFLGWGQGTLVTVSS
VL: B3 VL with E50D, S53N, Q55E, S56T, S93D, P94T, P96Y
notes: scFv
B17: Polypeptide No. 186 (scFv, V domains shown)
VH: QVQLVQSGAEVKKPGASVKVSCKASGYTFTKYYMHWVRQAPGQGLEWMGWINPNSGNTGYAQKFQGRVTMTRDTSTSTVYMELSSLRSEDTAVYYCARDIAVAGSTYYYYGMDVWGQGTTVTVSS
VL: B3 VL with E50D, S52T, S53N, Q55E, S56T, T91S, P94T, Q100G, L104V
notes: scFv
B18: Polypeptide No. 187 (scFv, V domains shown)
VH: EVQLLESGGGLVQPGGSLRLSCAASGFTFSSYDMHWVRQAPGKGLEWVSSISSSSSYIYYADSVKGRFTISRDNSKNTLYLQMNSLRAEDTAVYYCARDIDDVAGDYWGQGTLVTVSS
VL: B3 VL with E50G, T91S, P94T, P96F
notes: scFv
B19: Polypeptide No. 180 (scFv, V domains shown)
VH: QVQLVQSGAEVKKPGASVKVSCKASGYTFTSLDINWVRQAPGQGLEWMGSMNPRSGSTAYAQSFQGRVTMTRDTSTSTVYMELSSLRSEDTAVYYCAKSDYGDYLDYWGQGTLVTVSS
VL: B4 VL with T28S, S31P, A50D, T53N, I94T, G100Q
notes: scFv
B20: Polypeptide No. 185 (scFv, V domains shown)
VH: EVQLLESGGGLVQPGGSLRLSCAASGFTFSNSDMYWVRQAPGKGLEWVSAISGSDGTTYYADSVKGRFTISRDNSKNTLYLQMNSLRAEDTAVYYCARDDYGDQGFDLWGRGTLVTVSS
VL: DIQMTQSPSSLSASVGDRVTITCRASQDIRNDLGWYQQKPGKAPKLLIYDASNLQTGVPSRFSGSGSGTDFTLTISSLQPEDFATYYCQQSYNMPYTFGQGTKLEIKR
notes: scFv

Numbering of substitutions follows the chain as printed.

The first experiment addresses T1, huCLL1-K244-Avi-Tev-His. In words: BLI. (In general: BLI is a label-free optical method that tracks binding on a fibre tip over time.)
For the molecule B1, the binding result is “binds”.

For B2, the binding result is listed as “binds”.

In the case of B3, the binding result is on record as “binds”.

As to B4, the binding result is “binds”.

As to B5, the binding result is listed as “binds”.

For the molecule B6, the binding result is on record as “binds”.

As for B7, the binding result is given as “binds”.

In the case of B8, the binding result is given as “binds”.

Turning to B9, the binding result is reported as “binds”.

As for B10, the binding result is recorded as “binds”.

Regarding B11, the binding result was “binds”.

As to B12, the binding result was “binds”.

Regarding B13, the binding result is on record as “binds”.

With B14, the binding result is listed as “no binding”.

In the case of B15, the binding result is given as “binds”.

As for B16, the binding result was “binds”.

Take B17: the binding result is “binds”.

As to B18, the binding result is “binds”.

Take B19: the binding result is on record as “binds”.

With B20, the binding result is “binds”.

A further experiment concerns the target T2, huCLL1-Q244-Avi-Tev-His. In words: BLI.
For B1, the binding result is listed as “binds”.

Consider B2, for which the binding result was “no binding”.

As to B3, the binding result is “no binding”.

Take B4: the binding result is “binds”.

As to B5, the binding result was “binds”.

As for B6, the binding result is reported as “binds”.

Turning to B7, the binding result is given as “binds”.

Consider B8, for which the binding result is recorded as “binds”.

Consider B9, for which the binding result was “binds”.

Consider B10, for which the binding result was “binds”.

As to B11, the binding result is given as “no binding”.

With B12, the binding result is “binds”.

In the case of B13, the binding result is given as “binds”.

Take B14: the binding result is given as “binds”.

Take B15: the binding result is recorded as “binds”.

In the case of B16, the binding result is on record as “binds”.

B17: the binding result is given as “binds”.

For the molecule B18, the binding result is given as “binds”.

B19: the binding result is listed as “binds”.

Consider B20, for which the binding result is recorded as “binds”.
